Source: patent publication US20230303701A1 (ABEXXA BIOLOGICS, published 2023)
Like-named read-outs stand apart in the source and are kept apart here.

Legend:
[1] = target: HLA-E/… (V-0025, HLA-G signal peptide) complex on cells (human) (UniProt P13747); assay: flow cytometry, K562.E +V-0025, column 0 µg/mL +mIgG1
[2] = target: HLA-E on cells that do not present the HLA-G signal peptide (unpulsed K562.E cells; HLA-E positive, HLA-G negative cells; Tap-1 knock-out cells) (human) (UniProt P13747); assay: flow cytometry, K562.E, column 0 µg/mL +mIgG1
[3] = target: V-0025 (…, HLA-G signal peptide)/HLA-E*0103 monomer complex (human); assay: ELISA, V-0025 at 0.25 µg/mL, antibody titrated from 2 µg/mL to 3.8 pg/mL
[4] = target: T1, V-0025 (…, HLA-G signal peptide)/HLA-E*0103 monomer complex (human); assay: as above
T1 construct: also called ABI-V-0025; 0025-E 01:03 monomer complex

[5] = target: T2, V-0034 (…) pulsed on K562 cells expressing HLA-E (human, UniProt P13747 22-358; P61769 21-119); assay: flow cytometry, ABX0011 staining with Fc block, K562.E cells pulsed with 20 ug/mL peptide for 2hr
[6] = target: T3, P-0550 (…, PODXL2) pulsed on K562 cells expressing HLA-E (human, UniProt P13747 22-358; P61769 21-119); assay: as above
[7] = target: T4, HLA-E/… (V-0025, HLA-G signal peptide) complex on cells (human, UniProt P13747 22-358; P61769 21-119); assay: as above
T4 construct: also called K562.E + V-0025; V-0025 peptide pulsed K562 cells expressing HLA-E

[8] = target: T5, HLA-G on cell lines that express HLA-G but not HLA-E (human, UniProt P17693 25-338); assay: flow cytometry, IFNγ-stimulated JEG3 HLA-E knock-out
T5 construct: whole, on cells

peptide-empty HLA-E = peptide-empty HLA-E (human); assay: ELISA, ABX0011 in mouse serum, HLA-E 01:03 monomers
[9] = target: T1, V-0025 (…, HLA-G signal …); assay: label-free ResoSens instrument; ABX0011 captured by anti-IgG-Fc, monomer complex in serial dilutions from 5 µg/ml; monovalent
[10] = target: V-0038 (…, Hsp60)/HLA-E 01:03 monomer complex (human); assay: ELISA, monomer at 0.25 ug/ml on neutravidin plate (FIG. 9B)
[11] = target: V-0041 (…)/HLA-E 01:03 monomer complex (human); assay: as above
[12] = target: V-0040 (…)/HLA-E 01:03 monomer complex (human); assay: as above
[13] = target: V-0046 (…)/HLA-E 01:03 monomer complex (human); assay: as above
[14] = target: V-0035 (…)/HLA-E 01:03 monomer complex (human); assay: as above
[15] = target: V-0042 (…)/HLA-E 01:03 monomer complex (human); assay: as above
[16] = target: V-0044 (…)/HLA-E 01:03 monomer complex (human); assay: as above
[17] = target: V-0045 (…)/HLA-E 01:03 monomer complex (human); assay: as above
[18] = target: V-0021 (…)/HLA-E 01:03 monomer complex (human); assay: as above
[19] = target: P-0550 (…, PODXL2)/HLA-E 01:03 monomer complex (human); assay: as above
[20] = target: V-0043 (…)/HLA-E 01:03 monomer complex (human); assay: ELISA, monomers on a neutravidin plate
[21] = target: V-0034 (…)/HLA-E 01:03 monomer complex (human); assay: ELISA, monomers on a neutravidin plate
[22] = target: V-0037 (…)/HLA-E 01:03 monomer complex (human); assay: ELISA, monomers on a neutravidin plate
[23] = target: V-0043 (…) pulsed on K562 cells expressing HLA-E (human, UniProt P13747 22-358; P61769 21-119); assay: flow cytometry, peptide-pulsed K562.E cells, antibody molecules per cell
[24] = target: V-0021 (…) pulsed on K562 cells expressing HLA-E (human, UniProt P13747 22-358; P61769 21-119); assay: as above
[25] = target: V-0037 (…) pulsed on K562 cells expressing HLA-E (human, UniProt P13747 22-358; P61769 21-119); assay: as above
[26] = target: T2, V-0034 (…) pulsed on K562 cells …; assay: as above
[27] = target: V-0045 (…) pulsed on K562 cells expressing HLA-E (human, UniProt P13747 22-358; P61769 21-119); assay: as above
[28] = target: V-0044 (…) pulsed on K562 cells expressing HLA-E (human, UniProt P13747 22-358; P61769 21-119); assay: as above
[29] = target: V-0035 (…) pulsed on K562 cells expressing HLA-E (human, UniProt P13747 22-358; P61769 21-119); assay: as above
[30] = target: V-0046 (…) pulsed on K562 cells expressing HLA-E (human, UniProt P13747 22-358; P61769 21-119); assay: as above
[31] = target: V-0041 (…) pulsed on K562 cells expressing HLA-E (human, UniProt P13747 22-358; P61769 21-119); assay: as above
[32] = target: T3, P-0550 (…, PODXL2) pulsed on K562 cells …; assay: as above
[33] = target: V-0038 (…, Hsp60) pulsed on K562 cells expressing HLA-E (human, UniProt P13747 22-358; P61769 21-119); assay: as above
[34] = target: V-0040 (…) pulsed on K562 cells expressing HLA-E (human, UniProt P13747 22-358; P61769 21-119); assay: as above
[35] = target: V-0042 (…) pulsed on K562 cells expressing HLA-E (human, UniProt P13747 22-358; P61769 21-119); assay: as above
[36] = target: T5, HLA-G on cell lines that express HLA-G …; assay: flow cytometry, JEG3 stimulated with IFNγ (FIG. 25A of the legend)

Sequence of HLA-E on cells that do not present the HLA-G signal peptide (unpulsed K562.E cells; HLA-E positive, HLA-G negative cells; Tap-1 knock-out cells) (human) (P13747 22-358): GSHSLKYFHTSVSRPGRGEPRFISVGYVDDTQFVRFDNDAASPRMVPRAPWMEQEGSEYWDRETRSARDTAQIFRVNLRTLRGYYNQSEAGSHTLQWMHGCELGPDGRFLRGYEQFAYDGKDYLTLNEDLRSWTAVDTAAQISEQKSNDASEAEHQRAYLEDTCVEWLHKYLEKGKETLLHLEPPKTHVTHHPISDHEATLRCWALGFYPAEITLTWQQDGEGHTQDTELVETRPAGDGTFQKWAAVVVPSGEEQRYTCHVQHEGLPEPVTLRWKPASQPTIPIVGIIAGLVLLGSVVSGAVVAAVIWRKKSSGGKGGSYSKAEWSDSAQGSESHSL

With mIgG1 (antibody) the % of cells in Q3 (HLA-E channel +, Fab-scFv-Fc -) [1] was 0.37 and the % of cells in Q3 (HLA-E channel +, Fab-scFv-Fc -) [2] was 0.39.

Molecule anti-HLA-E antibody clone 3D12 has an EC50 (read off the curve) [3] of 7 ng/mL.

B1: ABX0011 (antibody, V domains shown)
VH: EVQLLESGGGLVQPGGSLRLSCAASGFTFSSYAMSWVRQAPGKGLEWVSTIAYGGGATAYADSVKGRFTISRDNSKNTLYLQMNSLRAEDTAVYYCAKGLSNFDYWGQGTLVTVSS
VL: DIQMTQSPSSLSASVGDRVTITCRASQSISSYLNWYQQKPGKAPKLLIYAASSLQSGVPSRFSGSGSGTDFTLTISSLQPEDFATYYCQQAAAYPSLFGQGTKVEIK
notes: also called ABX-11; R2-C02 as hIgG1
In the case of B1, the “EC50 (read off the curve)” value [4] is reported as about 1 ng/mL, the binding result [5] is reported as “no binding (tested: 10 µg/mL)” and the binding result [6] is reported as “no binding (tested: 10 µg/mL)”. The “EC50 (read off the curve)” value [7] was about 50 ng/mL, the binding result [8] was “no binding (tested: 1 µg/mL)” and the binding result (peptide-empty HLA-E) was “no binding (tested: 1 µg/ml)”. For the same molecule, the Kd [9] was 7.9 nM, the binding result [10] was “no binding (tested: 1 ug/ml)” and the binding result [11] was “no binding (tested: 1 ug/ml)”. B1: no binding (tested: 1 ug/ml) [12]; no binding (tested: 1 ug/ml) [13]; no binding (tested: 1 ug/ml) [14]. B1: no binding (tested: 1 ug/ml) [15]; no binding (tested: 1 ug/ml) [16]; no binding (tested: 1 ug/ml) [17]. B1: no binding (tested: 1 ug/ml) [18]; no binding (tested: 1 ug/ml) [19]; no binding (tested: 1 ug/ml) [20]. B1: no binding (tested: 1 ug/ml) [21]; no binding (tested: 1 ug/ml) [22].

B2: ABX0012 (ABX0011 with mouse IgG1) (antibody, V domains shown)
VH: B1 VH
VL: DIQMTQSPSSLSASVGDRVTITCRASQSISSYLNWYQQKPGKAPKLLIYAASSLQSGVPSRFSGSGSGTDFTLTISSLQPEDFATYYCQQAAAYPSLFGQGTKVEIKR
notes: also called ABX012; AB0012
B2: no binding [23]; no binding [24]; no binding [25]. B2: no binding [26]; no binding [27]; no binding [28]. B2: no binding [29]; no binding [30]; no binding [31]. B2: no binding [32]; no binding [33]; no binding [34]. B2: no binding [35]; no binding [36].
